A short description of the data set: label from the status in PepcDB records.
In the case of “MMNYRKADMKDISLLVSIRKRQLIDEGIEPNIDIDKELTRYFNNKLANNLLVEWIAEENNQIIATAAIAFIDFPPTYTNKTGRKGYITNMYTEPTSRGNGIATGMLDRLVNEAKERNIHKICLVASKLGRPVYKKYGFQDTDEWLELNLLEHHHHHH”, the protein production entry is listed as “failed”.

Turning to “MMPSVHRRSRPWDPEATPRIPEMALQPAAGARDLNPRQVESNRALSERLASVFRLWGYDEVSPPRVERLDTLMAGGAIASEDVVRLVADEPLGLRPEMTASIARAACTRLASRPRPLRLWASGTVFQSRAADEGGQCIEENLQCGVELFGVAPIEAEMELLSLLMAAVERLDFQAQHQPRLLMGHTGLMDLLLSPVPPVLRDAVRAALIQYDRLGLETIELEEGLRATLLSLLDCRGTPNEVLERLSSCFGAQALFDDLHRLCRQLQGPAAAQGVRLQLDPTFQPRFELYTGLVFQLVCDTHSAPVVVARGGRYDDLVRRCGAQPGQDFGAGFSLAIDPIRELLSDSSSNPTVAPQLMVAFSERSTLEAALERQRWWHQQGRSAVIELHPFSTRSLAEQQATDQGGFQLDWIDP”, the protein production entry is listed as “failed”.

In the case of “MMQDISIFLAFGAGFLSFISPCCLPLYPAFLSYITGMSVSELKEENAMLRKRSMIHTAFFLLGFSIIFIAIGFGTSFIGGIFTDYKDLIRQLGGIFIIVFGLIIVGVFKPKFLMQDRKFTFKNRPSGYFGSVLIGLAFAAGWTPCTGPILVSVIGLAATNPESAMIYMIAYILGFAIPFFVLSFFITKMSWIKRNSMAFMKVGGYIMIVMGVFLYFNWMTKIIVYFSSLFGGFTGF”, the protein production result is given as “failed”.

Take “MMQPLQLSAGGFAVVLGTNEIASAVAVHLHREGCCVVMSHDPFPPVIRRKMAFHDALYGDEVTVEGVRGERVDHATQIFKALRRSDNVLVSWLALPDLLPIGAVDVLIDARMQKHRVTPDLRGLARISVGLGPGFSTAVNCDVAIETRPGRSGLIVGAGWTDAADGVASPLGGVGAERFEYSQASGRWRTAVEIGSRVFSGFTIGHLGGVPVRAPCDGILRGVVRDGQDVPQGVKLLEVDSRGRHAQWTGIDDRGRGIAKAVLRAVQPQAEIRTSYAAQPIAVFLEHHHHHH”: the protein production result is listed as “not failed”.

With “MMRFSNKFKKVPYLLQALLNVCLSFLALALSALLISETWYIVLFVYKSLFNKVDSYYEMLGELLIFFMYFEFIALIIKYFKSDFHFPLRYFIYIGITAVIRLIIIDHDQAISTFWWAMAILAMICGFFIANRRNSVVEH”, the protein production result is reported as “failed”.

“MMRKLLTALPDGGVSALSGLQDAQTVGRISVAPSGRKFLLLTIVLFLITFATHAQVVDTWRFDNPQQQEKALSIAGQLRCPQCQNQNLLESNAPVAVSMRHQVYSMVAEGKSEAEITAWMTDRYGDFVRYNPPLNEQTLLLWALPCLLLLLVGVVVWRVRKRQHAEEGEQ”: the protein production entry is “failed”.

Regarding “MMRLRGIPQVFRFLLLLVLAGLAGCASKAPAPEKVAPVYQPEQSKEWERQGRQAYEAGDRKMALEAWHQAVAADPANVRVRNNLALLLKEQERFEEAAEMLEAGLKVTPKVAELHYNLAVISELYLLDLDKALEHYQHYQSLVGEEGSQVAGWIADLERRLE”, the protein production entry is listed as “failed”.

“MMSNALRRFDPAWFEKYDGIIKHERLGTHVGKPNSSHNYAIEKCVNLMNQGQSIVHALFKQDDVMKREYHIPLNTSIDASRYLLRQGIAFHGHDESEESANKGNFLELVKYTGEQNDATEQMAVVFRFVDKSGTVKERFIEVVHVKETSSASVKSAIDDLFAKYGLSLKTVRGQGYDGASIMKVAKGVAKSFDLLSLLLKIIVVYK”: the protein production entry is recorded as “failed”.

Regarding “MMSSSTTTLVDAVASPQAQQAVYIGLVNPKTPTNVGGIMRASGCYGVDAVFYTGKRYEYAARGPQQYNADTQSAAERIPLTGVTSLLDAIPAGTQLVCVDLVLGATPLPEFVHPERAFYVFGPEDGTIGQEIIDRADAVVYVPTVGCMNLAASVNVLLYDRLAKTYRKQATNEAEFDGDALIRTSRDNNNRTRVKTTKRESSK”, the protein production entry was “failed”.

Take “MMSTHYIAGQWLAGQGETLESLDPVGQGVVWSGRGADATQVDAAVCAAREAFPAWARRPLEQRIELLERFAATLKSRADELARVIGEETGKPLWESATEVTSMVNKVAISVQAFRERTGEKSGPLADATAVLRHKPHGVVAVFGPYNFPGHLPNGHIVPALLAGNCVVFKPSELTPKVAELTLKAWIQAGLPAGVLNLVQGGRETGVALAAHRGLDGLFFTGSSRTGNLLHSQFGGQPQKILALEMGGNNPLVVEEVADLDAAVYTIIQSAFISAGQRCTCARRLLVPQGAWGDALLARLVAVSATLRVGRFDEQPAPFMGAVISLSAAEHLLKAQEHLIGKGAQPLLAMTQPIDGAALLTPGILDVSAVAERPDEEFFGPLLQVIRYSDFAAAIREANATQYGLAAGLLSDSRERFEQFLVESRAGIVNWNKQLTGAASSAPFGGIGASGNHRPSAYYAADYCAYPVASLESPSVSLPATLTPGIS”: the protein production result was “not failed”.

For the sequence “MMSTKNGTNQARTSRDVGSELIYLTKALKAPALRDAAARLAERARDEGWSHEEYLAACLQREVAARDSHGAEGRIRAARFPSRKSLEDFDFDHQRSVKREVIAHLGTLDFVAGKENVIFLGPPGTGKTHLATGLGIRACQAGHRVAFGTAAQWVARLAEAHQAGRLSDELTRLGRIPLIVVDEVGYIPFEPEAANLFFQFISGRYERASVIVTSNKPFGRWGEVFGDDTVAAAMIDRLVHHAEVISLKGDSYRMRGRDLGRVPAANTGE”, the protein production entry is listed as “failed”.

Consider “MMTALATVLEVQEDIVVVGCQQKTSCNHCSSKDSCGTGIVSKALPGKVHHWAFHTEKKLSVGQLVEIGLPEKNLLQSAAIVYLTPLLFLLFGALLSEWFLSPMIGLGELTTIVVSVLFALGGYQLAKRLSHHIEQKTEQQVSLLRVLGEPVSDTNLGNAAR”, for which the protein production entry was “failed”.

For “MMTKKERIAIQRSMAEEALGKLKAIRQLCGAEDSSDSSDMQEVEIWTNRIKELEDWLWGESPIA”, the protein production entry is listed as “not failed”.

As for “MMTQQELEKYLWGAATTLRGTIDAGDYKQYIFPLMFFKRICDVYDEEFENALAESDGDLEYAAFAENHHFQVPKGAHWNDVRETTTNIGLALQNAMRAIEKANPDTLEGIFGDASWTNKERLSDAMLTNLIEHYSEQTLNLKNVPDDKLGNAYEYLIKEFADDSGHTAAEFYTNRTVVKLMTMIMAPQPGESVYDPTCGSGGLLLNCALHLKDEGKEYRTLKLYGQEINLLTSAIARMNMFMHGIEEFDIVRGNTLSNPGLLENDELKKFNVILANPPYSIKSWDRKAFESDPYGRNVWGTPPQGCADYAFQQHIQKSLDLGNGRSISLWPHGILFRDAETAMRRKMIEQDQVECVIGLGPNLFYNSPMEACLLITKTNKIESKKDKILFINAVKEVRQDKNIGYLDQVHIDKIFNAYNKFENEDSFAVLVDKQEVLDKKANMAINLYIRPDSLVSSEEACFATAYQEWQQSSGDLKQSMEKLFKELV”, the protein production entry is recorded as “not failed”.

For the sequence “MMVAVFWISFLLLAYIYFGYPVCIRLLASARPLPVNKSGAYQPKVSILIAAYNEAKDIEATLRNKLALDYPREQLEILVVSDESEDGTDEIVQAVAADAPFPVKLFRQVPRQGKTAGLNMLKQHAEGEILAFSDANSEWDQQALKALVSNFNDPAVGYVTGKMVYVNPEGALIGDGCSAYMKYENWLRAQETLVGSVVGVDGGIDAMRKELHSELNADQLPDFVQPLKVVEQGYRVVYEPGALLKEEALSDGGSEFSMRVRVSLRALWALKDMKQLMSPANDPVFAWQLISHKLLRYAAFAPMITLAIAALYLAPVKGLYALAAIGYGLFLYFAWAGYQKESRGQSLSTMYALPYYFVLLNLASFKAFVAFAKGEKKVVWNPRKG”, the protein production entry is listed as “failed”.

In the case of “MNAADLTIWLVAGAGVLSFISPCSLPLYPSYLSYITGVSIQDLKENRGIMQKSAIIHTVFFMIGFSVIFYALGLSVSWIGITFSSNQKLIQQIGGIFIVLMGLFMTGLFQPKWLMAEKKVQYRSKSTGYIRSILVGMTYAAGWTPCVGPIFSAVLMLGATNPEGALLYITAYTLGFAVPFFVMAFFIGKVKWIVTYANVMMKIGGGMMIVTGILLYTNQMTKITAFFIRLFGGFTGF”, the protein production result is given as “failed”.

As to “MNAAVVRRTQEALGKVIRRPPLTEKLLSKPPFRYLHDIITEVIRMTGFMKGLYTDAEMKSDNVKDKDAKISFLQKAIDVVVMVSGEPLLAKPARIVAGHEPERTNELLQIIGKCCLNKLSSDDAVRRVLAGEK”, the protein production result is given as “not failed”.

On to “MNAINTKVTPTKRKQVALFSSDPNFKRDVATRLDALAIYDVRVSETDDFLKGPPADTRPGIVILDLGGGDLLGKPGIVEARALWATVPLIAVSDELTSEQTRVLVRMNASDWLHKPLDGKELLNAVTFHDTGNQ”, for which the protein production result is recorded as “not failed”.

In the case of “MNAIPRVALVWLLVAQVLVILPHLAYMPLWIAAMWLGCAAWRVQVFRMRAGYPRAWVKLALALLAGAGVWLSRGSLVGLDAGAVLLIAAFILKLVEMKTRRDALVLVFLGFFAVVVGYLFDDGFLAALYSLLPVTALLAALIGLQQSAFASRPWPTLRLAGGLLLQALPLMLLLFLFFPRLGPLWSLPMPGNKGVTGLSESMAPGDIAELGRSAELAFRVRFEGALPPREQLYWRALTMERFDGRRWAQAPQWSGEDALHWQKRGPELRYDVIMQPSSQPWLFALDVAQTDQTDTRLMSDFHLQRRQPVEQRLFYRVSSWPQALRESSIDPRTRWRNLQLPMHGNPRARALADELRQAHAQPQALVAALLQRFNHEPFAYTLKPPATGADGVDDFLFDTRSGFCAHYAGAMAFVLRAAGIPARVVAGYQGGELNPAGNYLLVHQFDAHAWVEYWQPEQGWLSVDPTYQVAPERIEQGLEQALAGDSEYLADAPLSPLRYRGLPWLNDMRLAWDSLNYGWQRWVLAYQGEQQGAFLQRWFGGLDPTRLGLLLGAAAILSVGLLALFLLKPWQGRGDLRSRQLRRFERLLEMHGLRRSPGEGLRSYGERAARVLPAQAPAIAAFVGAFEAQRYGHGGADDPGLRLRALRRALPWRLVRTPTRDGRGEEQA”, the protein production entry is on record as “failed”.

On to “MNALVAHNSEAWDKKVETGNEWTVAVEQQVIEQAKKGNWDIRVTPMKDVPKDWFPPIKGLKVLCLASGGGQQGPVLAAAGADVTVLDNSEKQLNQDRMIAERDGLTIHTVKGSMDDLSVFNDESFDVIVHPVANVFVENVLPVWKEAYRVLKRNGILISGFVNPVVFLFDTVLEQQGVLKVKHSIPYADPEDLPKHKVKELIENNEALEFGHSLEDQIKGQIDAGFIVTGFYEDKGGFVLDQYIHTYSATRSVKVLEHHHHHH”, for which the protein production result is “not failed”.

For “MNANIMLNEDITPIGSDYDTVRGVIELLTLDYREQPSLEAIAARLGQSPTQLQKTFTRWAGLSPKAFLQAVTLDHAKRLLREEDLPLLETSIEVGMSGPGRLHDLFVTHEAMSPGEWKAKGGGLTIRYGFHASPFGLALVMITDRGLAGCAFADPGDERACFEDMAGRWPNADYVEDREATAPYAARIFEPAMWTADKPLRVVLLGTDFQVRVWKSLLKIPMGRAVTYSNIACDIGQPTASRAVGAAVGANPVSFVVPCHRAVGKSGALTGYHWGLTRKRAMLGWETGKALEHHHHHH”, the protein production entry was “failed”.

For the sequence “MNARDNKFNTWNDSRGNYWSDYEGSDENGDGIGDSAYAVNPEAGSMDYMPLMEYLHSSPVLPTARFTSDITEGFAPLSVRFKDFSENATSRLWMFGDGNTSDSPSPLHTFFNEGEYIVSLIVSNENDSDSASVTIRALEHHHHHH”, the protein production entry is on record as “not failed”.

“MNASAVETIYESTEDKAALTSVVDLVKLSDQYRQSAILHYAVADKLFDLTQTGRTPAEVAASFGMVEGKAAILLHALAALGLLTKEGDAFRNTALTERYLTTTSADYIGPIVEHQYLQWDNWPRLGEILRSEKPLAFQQESRFAHDTRARDAFNDAMVRLSQPMVDVVSELGVFARARTVIDLAGGHGTYLAQVLRRHPQLTGQIWDLPTTRDAARKTIHAHDLGGRVEFFEKNLLDARNFEGGAADVVMLNDCLHYFDAREAREVIGHAAGLVKPGGALLILTMTMNDDRVTPALSADFSLHMMVNTNHGELHPTPWIAGVVRDAGLAVGERSIGRYTLLIGQRSSGEV”: the protein production result was “not failed”.
